Measurements published in paper doi:10.1101/2024.06.04.597308.

Biological target: 3β-OH-Δ5-6-cholesterol-5β-reductase (5βChR) from Limosilactobacillus fermentum NKN51 (Limosilactobacillus fermentum NKN51)
Assay: SEC

stoichiometry N: 2
Substance: 3β-OH-Δ5-6-cholesterol-5β-reductase (5βChR) from Limosilactobacillus fermentum NKN51 (enzyme)
